Experimental data as given in patent US20180037663A1 (OHIO STATE INNOVATION FOUNDATION, published 2018).

Biological target: T1, bovine submaxillary mucin (bovine)
T1 construct: Used as surrogate antigen for TAG-72; also called BSM
Experiment: binding study of FIG. 14 (inhibition dot blot), compared with 3E8.IgG

fold worse binder than 3E8.IgG: ~16 fold
B1: 3E8.scFv (scFv)
scFv: GSSGDIVMTQSPDSLAVSLGERATINCKSSQSVLYSSNNKNYLAWYQQKPGQPPKLLIYWASTRESGVPDRFSGSGSGTDFTLTISSLQAEDVAVYYCQQYYSYPLTFGGGTKVEIKLSADDAKKDAAKKDDAKKDDAKKDLQVQLVQSGAEVKKPGASVKVSCKASGYTFTDHAIHWVRQAPGQRLEWMGYFSPGNDDFKYSQKFQGRVTITADKSASTAYMELSSLRSEDTAVYYCARSWIMQYWGQGTLVTVSS
notes: Monomeric scFv purified from the E. coli periplasm; Labelled at lysines with fluorescein (dot blots) or biotin (HRP dot blot, IHC); also called scFv of 3E8; single chain variable fragment of 3E8
